69 variants from the Human Domainome abundance scans (Beltran et al. 2025) can be followed below.

The labels stand for the following.
B1: WW domain-binding protein 4, residues 8 to 43; numbered along this chain, O75554 (parent)
chain: QPKKFCDYCKCWIADNRPSVEFHERGKNHKENVAKR

± gives the uncertainty stated by the source.

In this data set the parent is B1. Put plainly: abundance fitness (aPCA) (normalised: wild type 0, dead -1); higher = more abundant; growth selection in yeast, the domain comes from the species named. As to conditions: Homo sapiens.
For QPKKFCDYCKCWIADNRPSVEFHTRGKNHKENVAKR [E24T], the abundance fitness is -0.549 ± 0.21.
Take QPKKFCDYCKCWIADNRPSVEFHWRGKNHKENVAKR [E24W]: the abundance fitness was -0.413 ± 0.079.
As to QPKKFCDYCKCWIADNRPSVEFHDRGKNHKENVAKR [E24D], the abundance fitness is -0.372 ± 0.15.
On to QPKKFCDYCKCWIADNRPSVEFHERGKNHKKNVAKR [E31K], for which the abundance fitness was -0.107 ± 0.09.
Regarding QPKKFCDYCKCWIADNRPSVEFHERGKNHKSNVAKR [E31S], the abundance fitness was -0.326 ± 0.13.
For QPKKFCDYCKCWIADNRPSVEFHERGKNHKNNVAKR [E31N], the abundance fitness is -0.346 ± 0.23.
For QPKKFCDYCKCWIADNRPSVEFHERGKNHKWNVAKR [E31W], the abundance fitness is -0.955 ± 0.1.
With QPKKFCDYCKCWIADNRPSVEFHERGKNKKENVAKR [H29K], the abundance fitness is -0.562 ± 0.21.
On to QPKKFCDYCKCWIADNRPSVEFHERGKNRKENVAKR [H29R], for which the abundance fitness was -0.626 ± 0.084.
Take QPKKFCDYCKCWIADNRPSVEFHERGKNQKENVAKR [H29Q]: the abundance fitness was -0.656 ± 0.14.
Next, QPKKFCDYCKCWIADNRPSVEFHERGKNFKENVAKR [H29F]: -1 ± 0.32; QPKKFCDYCKCWIADNRPSVEFHERGKNPKENVAKR [H29P]: -0.894 ± 0.46; QPKKFCDYCKCWIADNRPSVEFHERGKNYKENVAKR [H29Y]: -0.736 ± 0.18.
Take QPKKFCDYCKCWIADNRPSVEFTERGKNHKENVAKR [H23T]: the abundance fitness was -0.717 ± 0.11.
Take QPKKFCDYCKCWIADNRPSVEFMERGKNHKENVAKR [H23M]: the abundance fitness is -0.569 ± 0.17.
On to QPKKFCDYCKCWIADNRPSVEFDERGKNHKENVAKR [H23D], for which the abundance fitness was -0.387 ± 0.13.
For the variant QPKKFCDYCKCWIADNRPSVEFFERGKNHKENVAKR [H23F], the abundance fitness was -0.633 ± 0.4.
Regarding QPKKFCDYCKCWIADNRPSVEFHERGKNHKENVGKR [A34G], the abundance fitness was -0.036 ± 0.061.
As to QPKKFCDYCKCWIADNRPSVEFHERGKNHKENVDKR [A34D], the abundance fitness came out at 0.351 ± 0.13.
As for QPKKFCDYCKCWIADNRPSVEFHERGKNHKENVWKR [A34W], the figure is -0.232 ± 0.12.
Turning to QPKKACDYCKCWIADNRPSVEFHERGKNHKENVAKR [F5A], the abundance fitness is -0.261 ± 0.063.
For the variant QPKKRCDYCKCWIADNRPSVEFHERGKNHKENVAKR [F5R], the abundance fitness is -0.465 ± 0.068.
As for QPKKVCDYCKCWIADNRPSVEFHERGKNHKENVAKR [F5V], the figure is -0.565 ± 0.083; as for QPKKECDYCKCWIADNRPSVEFHERGKNHKENVAKR [F5E], -0.356 ± 0.072.
QPKKDCDYCKCWIADNRPSVEFHERGKNHKENVAKR [F5D]: the abundance fitness was -0.533 ± 0.13.
Take QPKKFCDYCKCWIADRRPSVEFHERGKNHKENVAKR [N16R]: the abundance fitness was -0.141 ± 0.061.
Consider QPKKFCDYCKCWIADPRPSVEFHERGKNHKENVAKR [N16P], for which the abundance fitness came to 0.018 ± 0.078.
For the variant QPKKFCDYCKCWIADIRPSVEFHERGKNHKENVAKR [N16I], the abundance fitness was determined as 0.321 ± 0.19.
QPKKFCDYCKCWIADNWPSVEFHERGKNHKENVAKR [R17W]: the abundance fitness was -0.389 ± 0.074.
QPKKFCDYCKCWIADNTPSVEFHERGKNHKENVAKR [R17T]: the abundance fitness was -0.03 ± 0.11.
With QPKKFCDYCKCWIADNRPSVEFHERGKNHKENVAKM [R36M], the abundance fitness was -0.267 ± 0.2.
For QPKKFCDYCKCWIADNRPSVEFHERGKNHKENVAKW [R36W], the abundance fitness is -0.29 ± 0.12.
On to QPKKFCDYCKCWIADNRPSVEFHERGKNHKENVAKC [R36C], for which the abundance fitness was 0.005 ± 0.14.
As to QPKKFCDYCKCWIADNRPSVEFHERGKNHKENVAKG [R36G], the abundance fitness turned out to be 0.16 ± 0.065.
Turning to QPKKFCDYCKCWIADNRPSVEFHERGWNHKENVAKR [K27W], the abundance fitness was -0.218 ± 0.064.
As for QPKKFCDYCKCWIADNRPSVEFHERGMNHKENVAKR [K27M], the figure is -0.115 ± 0.12; as for QIKKFCDYCKCWIADNRPSVEFHERGKNHKENVAKR [P2I], 0.015 ± 0.14; as for QYKKFCDYCKCWIADNRPSVEFHERGKNHKENVAKR [P2Y], -0.176 ± 0.26.
As for QPKKFCDYCKCWIADNRPSTEFHERGKNHKENVAKR [V20T], the figure is -0.183 ± 0.12; as for QPKKFCDYCKCWIADNRPSQEFHERGKNHKENVAKR [V20Q], -0.254 ± 0.084.
Regarding QPKKFCDYCKCWIADNRPSGEFHERGKNHKENVAKR [V20G], the abundance fitness was -0.272 ± 0.067.
As to QPKKFCDYCKCWIADNRPSLEFHERGKNHKENVAKR [V20L], the abundance fitness is -0.314 ± 0.069.
In the case of QPKKFRDYCKCWIADNRPSVEFHERGKNHKENVAKR [C6R], the abundance fitness was -0.691 ± 0.071.
Turning to QPKKFVDYCKCWIADNRPSVEFHERGKNHKENVAKR [C6V], the abundance fitness is -0.756 ± 0.083.
As for QPKKFEDYCKCWIADNRPSVEFHERGKNHKENVAKR [C6E], the abundance fitness was -0.546 ± 0.079.
Consider QPKKFMDYCKCWIADNRPSVEFHERGKNHKENVAKR [C6M], for which the abundance fitness is -0.654 ± 0.09.
Consider QPKKFWDYCKCWIADNRPSVEFHERGKNHKENVAKR [C6W], for which the abundance fitness was -1 ± 0.13.
Next, QPKKFGDYCKCWIADNRPSVEFHERGKNHKENVAKR [C6G]: -1.07 ± 0.062.
Consider QPKKFFDYCKCWIADNRPSVEFHERGKNHKENVAKR [C6F], for which the abundance fitness is -0.653 ± 0.17.
Regarding QPKKFADYCKCWIADNRPSVEFHERGKNHKENVAKR [C6A], the abundance fitness was -0.471 ± 0.07.
Turning to QPKKFCDYCSCWIADNRPSVEFHERGKNHKENVAKR [K10S], the abundance fitness is -0.151 ± 0.079.
For the variant QPKKFCDYCECWIADNRPSVEFHERGKNHKENVAKR [K10E], the abundance fitness is -0.134 ± 0.097.
For the variant QPKKFCDYCNCWIADNRPSVEFHERGKNHKENVAKR [K10N], the abundance fitness is -0.149 ± 0.16.
Turning to QPKKFCDYCKCWIANNRPSVEFHERGKNHKENVAKR [D15N], the abundance fitness was -0.249 ± 0.29.
For QPKKFCDYCKCWIAKNRPSVEFHERGKNHKENVAKR [D15K], the abundance fitness is -0.367 ± 0.092.
As for QPKKFCDYCKCWIAPNRPSVEFHERGKNHKENVAKR [D15P], the figure is -0.186 ± 0.083; as for QPKKFCDYCKCWIALNRPSVEFHERGKNHKENVAKR [D15L], -0.332 ± 0.08; as for QPRKFCDYCKCWIADNRPSVEFHERGKNHKENVAKR [K3R], 0.013 ± 0.062.
Consider QPFKFCDYCKCWIADNRPSVEFHERGKNHKENVAKR [K3F], for which the abundance fitness is -0.881 ± 0.29.
Consider QPMKFCDYCKCWIADNRPSVEFHERGKNHKENVAKR [K3M], for which the abundance fitness worked out at 0.074 ± 0.087.
As for QPEKFCDYCKCWIADNRPSVEFHERGKNHKENVAKR [K3E], the abundance fitness came out at 0.174 ± 0.073.
As to QPKKFCDYCKCWIADNRPSVEFHERGKFHKENVAKR [N28F], the abundance fitness stood at 0.106 ± 0.092.
QPKKFCDYCKCWIADNRPSVEFHERGKQHKENVAKR [N28Q]: the abundance fitness is -0.087 ± 0.11.
On to QPKKFCDYCKCWIADNRPSVEFHERGKEHKENVAKR [N28E], for which the abundance fitness is -0.015 ± 0.078.
Regarding QPKKFCDYCKCWIADNRPSVEFHERGKRHKENVAKR [N28R], the abundance fitness stood at 0.149 ± 0.062.
As for QPKKFCDYCKCWIADNRPSVEFHERGKLHKENVAKR [N28L], the abundance fitness is 0.046 ± 0.084.
For the variant QPKKFCDYCKCWIADNRPSVEFHERGKNHMENVAKR [K30M], the abundance fitness is -0.177 ± 0.14.
Regarding QPKKFCDYCKCWIADNRPSVEFHERGKNHQENVAKR [K30Q], the abundance fitness is -0.02 ± 0.079.
Turning to QPKKFCDYCKCWIADNRPSVEFHERGKNHTENVAKR [K30T], the abundance fitness is 0.201 ± 0.099.
